According to US20230414702A1 (INSERM INSTITUT NATIONAL DE LA SANT ET DE LA REC HERCHE M …, published 2023):
Non-standard residues stand in square brackets, D forms with d. No end group written: not given here. NMeR = CN[C@@H](CCCNC(=N)N)C(=O)O; Nle = CCCC[C@H](N)C(=O)O

Experiments:
CD47 receptor [1] = target: T1, CD47 receptor (UniProt Q08722 19-323, limits assumed); experiment: microscale thermophoresis (MST), labeled MEC-1 membrane preparation
T1 construct: whole, on cells; The assays used a whole MEC-1 cell membrane preparation, not purified CD47; also called membrane preparation from MEC-1 cells
T1 sequence (Q08722 19-323 limits assumed): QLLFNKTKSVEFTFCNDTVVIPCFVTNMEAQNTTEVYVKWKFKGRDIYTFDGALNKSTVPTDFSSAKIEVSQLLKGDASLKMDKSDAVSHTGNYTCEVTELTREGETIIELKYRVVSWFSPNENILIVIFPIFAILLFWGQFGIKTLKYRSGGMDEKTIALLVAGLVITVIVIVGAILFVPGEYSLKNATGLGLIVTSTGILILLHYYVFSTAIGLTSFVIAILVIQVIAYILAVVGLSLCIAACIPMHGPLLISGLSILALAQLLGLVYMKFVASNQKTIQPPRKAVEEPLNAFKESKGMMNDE
Experimental: (§1) For all experiments the concentration of the NT.115-labeled membrane was kept constant, while the concentrations of the ligand (peptide) was varied. After a short incubation time (5 min) the samples were loaded into MST premium glass capillaries and the MST analysis was performed using the Monolith NT.115.

CD47 receptor [2] = target: T1, CD47 receptor; experiment: column Kd(µM)PR; binding to MEC-1 membrane preparation, method not named in Table 4
CD47 receptor [3] = target: T1, CD47 receptor; experiment: binding to MEC-1 membrane preparation; method not named in Table 3 (same value as the OR column of Table 2)
CD47 receptor [4] = target: T1, CD47 receptor; experiment: column Kd (OR); biolayer interferometry on Octet RED96, biotinylated MEC-1 membrane preparation on SSA biosensors
CD47 receptor [5] = target: T1, CD47 receptor; experiment: apparent Kd, microscale thermophoresis (MST), Monolith NT.115, NT.115-labeled membrane
Experimental: as §1

CD47 receptor [6] = target: T1, CD47 receptor; experiment: apparent Kd, biolayer interferometry (BI) on Octet RED96, biotinylated MEC-1 membrane preparation on SSA biosensors
Source text: This system monitors interference of light reflected from two sources (an internal reflection surface and the liquid/solid interface of a fiber optic sensor) to measure the rate of binding of molecules to the biosensor surface. MEC-1 cells membrane preparation is biotinylated with the EZ-Link NHS-PEG4-Biotin kit from Thermo-Scientific and excess biotin is removed using desalting column from Thermo-Scientific. […] Typically, the biosensors were pre-equilibrated in PBS containing either biotinylated membranes or biocytine 100 μg/mL. Biosensors are then equilibrated in assay buffer for 10 min, brought to baseline in assay buffer for 60 sec. and transferred to wells containing peptide in dose-response (association for 120 sec. and dissociation for 300 sec.). The double reference with either membrane-loaded biosensors without any peptide dose-response or biocytine-loaded biosensors with each peptide dose-response were run in parallel for background signal double subtractions.

CD47 receptor [7] = target: T1, CD47 receptor; experiment: binding to MEC-1 membrane preparation; method not named in Table 3

KRFYVVMWKK ((D)-Lys at position 1 and (D)-Lys at position 10, also called 4(PKHB1)) [PKHB1, H-(D)K R F Y V V M W K (D)K-OH]
Kd (CD47 receptor [1]): 3.04 µM | Kd (CD47 receptor [2]): 22.6 µM | Kd (CD47 receptor [3]): 43 µM | Kd (CD47 receptor [4]): 43 µM

H-[dK][NMeR]FYVV[Nle]WK[dK]-OH [PKT16, H-(D)K ψ(CONMe)R F Y V V X W K (D)K-OH]
Kd (CD47 receptor [2]): 12.1 µM | Kd (CD47 receptor [5]): 1.6 µM | Kd (CD47 receptor [6]): 7.4 µM

B1: PKT11, H-(D)K ψ(CONMe)R F Y V V M W K (D)K-OH (peptide)
peptide: KRFYVVMWKK
modifications: (D)-Lys at positions 1 and 10; N-methyl pseudopeptide bond ψ(CONMe) between (D)Lys1 and Arg2
Kd (CD47 receptor [2]): 21.7 µM

B2: 4N1K (peptide)
peptide: KRFYVVMWKK
notes: Decapeptide that mimics the C-terminal domain of TSP-1
Kd (CD47 receptor [1]): 2.28 µM | Kd (CD47 receptor [3]): 19 µM | Kd (CD47 receptor [4]): 19 µM

B3: K9/A, kRFYVVMW(A)k (peptide)
peptide: H-[dK]RFYVVMWA[dK]-OH
SMILES: CSCC[C@H](NC(=O)[C@@H](NC(=O)[C@@H](NC(=O)[C@H](Cc1ccc(O)cc1)NC(=O)[C@H](Cc1ccccc1)NC(=O)[C@H](CCCNC(=N)N)NC(=O)[C@H](N)CCCCN)C(C)C)C(C)C)C(=O)N[C@@H](Cc1c[nH]c2ccccc12)C(=O)N[C@@H](C)C(=O)N[C@H](CCCCN)C(=O)O
notes: Ala-scan analogue of PKHB1
Kd (CD47 receptor [7]): 27 µM

B4: PKT17, H-(D)K ψ(CONMe)R F Y V V L W K (D)K-OH (peptide)
peptide: H-[dK][NMeR]FYVVLWK[dK]-OH
SMILES: CC(C)C[C@H](NC(=O)[C@@H](NC(=O)[C@@H](NC(=O)[C@H](Cc1ccc(O)cc1)NC(=O)[C@H](Cc1ccccc1)NC(=O)[C@H](CCCNC(=N)N)N(C)C(=O)[C@H](N)CCCCN)C(C)C)C(C)C)C(=O)N[C@@H](Cc1c[nH]c2ccccc12)C(=O)N[C@@H](CCCCN)C(=O)N[C@H](CCCCN)C(=O)O
Kd (CD47 receptor [2]): 12 µM

[dK]RFYVVAWK[dK] (Ala-scan analogue of PKHB1) [M7/A, kRFYVV(A)WKk]
Kd (CD47 receptor [7]): 42 µM

B5: R2/A, k(A)FYVVMWKk (peptide)
peptide: H-[dK]AFYVVMWK[dK]-OH
SMILES: CSCC[C@H](NC(=O)[C@@H](NC(=O)[C@@H](NC(=O)[C@H](Cc1ccc(O)cc1)NC(=O)[C@H](Cc1ccccc1)NC(=O)[C@H](C)NC(=O)[C@H](N)CCCCN)C(C)C)C(C)C)C(=O)N[C@@H](Cc1c[nH]c2ccccc12)C(=O)N[C@@H](CCCCN)C(=O)N[C@H](CCCCN)C(=O)O
notes: Ala-scan analogue of PKHB1
Kd (CD47 receptor [7]): 6.2 µM

B6: PKT15, H-(D)K ψ(CONMe)R F Y V V M W ψ(CONMe)K (D)K-OH (peptide)
peptide: KRFYVVMWKK
modifications: (D)-Lys at positions 1 and 10; N-methyl pseudopeptide bonds ψ(CONMe) between (D)Lys1 and Arg2 and between Trp8 and Lys9
Kd (CD47 receptor [2]): 16 µM

Ac-KRFYVVMWKK-NH2 [peptide 2, Ac-KRFYVVMWKK-NH2]
Kd (CD47 receptor [1]): 1.2 µM | Kd (CD47 receptor [4]): 40 µM

B7: M/Nle, kRFYVV(Nle)WKk (peptide)
peptide: H-[dK]RFYVV[Nle]WK[dK]-OH
SMILES: CCCC[C@H](NC(=O)[C@@H](NC(=O)[C@@H](NC(=O)[C@H](Cc1ccc(O)cc1)NC(=O)[C@H](Cc1ccccc1)NC(=O)[C@H](CCCNC(=N)N)NC(=O)[C@H](N)CCCCN)C(C)C)C(C)C)C(=O)N[C@@H](Cc1c[nH]c2ccccc12)C(=O)N[C@@H](CCCCN)C(=O)N[C@H](CCCCN)C(=O)O
Kd (CD47 receptor [7]): 18 µM
